Test results as given in patent US20250281611A1 (BIOSCEPTRE AUST, published 2025).

Experiments:
nfP2X7 CAR 1 [1] = target: T1, nfP2X7 CAR 1; assay: flow cytometry, CAR T cells, anti-His-FITC, EGFR+ over EGFR- cells
T1 construct: Expressed on T cells with truncated EGFR as marker gene; also called anti-nfP2X7 receptor CAR 1; nfP2X7 targeted CAR on EGFR+ T cells
Method: (§1) nfP2X₇ CAR T cells were incubated with different BRiDGE variants at saturating concentrations. […] The MFI intensity correlates with the number of secondary bound antibodies bound to the BRiDGEs that are only detected if they are bound to the CAR T cells. EGFR was used as a marker gene to detect the CAR expression. Thus, the EGFR+ T cell population was defined as the CAR expressing cells and the EGFR− T cell population was defined as the CAR negative subset. MFI: median fluorescence intensity. EGFR: epidermal growth factor receptor. BLItz: Bio-Layer interferometry (BLI) technology using HIS-tag identification tips. HIS-tag MFI Ratio: relative index that is calculated by the testing condition MFI divided by the control MFI, which corresponds to the MFI measured on EGFR+ T cells (defined as CAR positive cells) divided by the MFI measured on the EGFR− T cells (defined as CAR negative cells). […] The higher the MFIR, the stronger the binding.

CD33 [2] = target: T2, CD33 (UniProt P20138 18-364, limits assumed); assay: flow cytometry, MOLM-13 cells, anti-His-FITC detection
T2 construct: whole, on cells; also called Siglec-3; CD33 on MOLM-13 cells
Method: (§2) MOLM-13 cells were incubated with different CD33 BRIDGE variants at saturating concentrations. […] The MFI intensity correlates with the number of secondary antibodies bound to the CD33 BRIDGE variants that are only detected if they are bound to the MOLM-13 cells. MFI: median fluorescence intensity. BLItz: Bio-Layer interferometry (BLI) technology using HIS-tag identification tips. […] The higher the MFIR, the stronger the binding.

nfP2X7 CAR 1 [3] = target: T1, nfP2X7 CAR 1; assay: flow cytometry, nfP2X7 CAR T cells (EGFR+), anti-His-FITC detection
Method: as §1

CD33 [4] = target: T2, CD33; assay: flow cytometry, MOLM-13 cells, anti-His-FITC detection, ratio to no bridge
Method: as §2

nfP2X7 CAR 1 [5] = target: T1, nfP2X7 CAR 1; assay: flow cytometry, CAR T cells, anti-His-FITC, EGFR+ MFI over background 0.4
Method: as §1

T2 sequence (P20138 18-364 limits assumed): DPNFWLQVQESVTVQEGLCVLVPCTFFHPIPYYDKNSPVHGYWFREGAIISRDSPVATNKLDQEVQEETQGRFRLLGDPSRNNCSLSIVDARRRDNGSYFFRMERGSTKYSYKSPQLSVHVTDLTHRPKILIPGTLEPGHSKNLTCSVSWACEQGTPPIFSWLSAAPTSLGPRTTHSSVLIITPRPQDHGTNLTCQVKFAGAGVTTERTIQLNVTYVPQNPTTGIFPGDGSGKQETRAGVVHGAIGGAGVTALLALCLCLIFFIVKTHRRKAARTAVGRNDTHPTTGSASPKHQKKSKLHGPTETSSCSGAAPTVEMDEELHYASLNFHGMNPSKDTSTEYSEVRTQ

Binder	HisTag MFI Ratio of EGFR+/EGFR- (nfP2X7 CAR 1 [1])	MFI HisTag FITC (CD33 [2])	MFI HisTag FITC in EGFR+ Population (nfP2X7 CAR 1 [3])	MFIR HisTag FITC (CD33 [4])	HisTag MFI Ratio (background 0.4) (nfP2X7 CAR 1 [5])
CD33 BRIDGE variant B17 (Fab, Lintuzumab-based Fab bridging molecule) light: GHNYTTRNILPGLNITSTFHKTSGSGKGSEPKSSDKTHTGGGGSDIQMTQSPSSLSASVGDRVTITCRASESVDNYGISFMNWFQQKPGKAPKLLIYAASNQGSGVPSRFSGSGSGTDFTLTISSLQPDDFATYYCQQSKEVPWTFGQGTKVEIKRTVAAPSVFIFPPSDEQLKSGTASVVCLLNNFYPREAKVQWKVDNALQSGNSQESVTEQDSKDSTYSLSSTLTLSKADYEKHKVYACEVTHQGLSSPVTKSFNRGECHHHHHH heavy: QVQLVQSGAEVKKPGSSVKVSCKASGYTFTDYNMHWVRQAPGQGLEWIGYIYPYNGGTGYNQKFKSKATITADESTNTAYMELSSLRSEDTAVYYCARGRPAMDYWGQGTLVTVSSASTKGPSVFPLAPSSKSTSGGTAALGCLVKDYFPEPVTVSWNSGALTSGVHTFPAVLQSSGLYSLSSVVTVPSSSLGTQTYICNVNHKPSNTKVDKKVEPKSCHHHHHH	3.2	7.36	1.58	11	4
CD33 BRIDGE variant B18 (Fab, Lintuzumab-based Fab bridging molecule) light: GHNYTTRNILPGLNITSTFHKTSGSGKGGGGSEPKSSDKTHTGGGGSDIQMTQSPSSLSASVGDRVTITCRASESVDNYGISFMNWFQQKPGKAPKLLIYAASNQGSGVPSRFSGSGSGTDFTLTISSLQPDDFATYYCQQSKEVPWTFGQGTKVEIKRTVAAPSVFIFPPSDEQLKSGTASVVCLLNNFYPREAKVQWKVDNALQSGNSQESVTEQDSKDSTYSLSSTLTLSKADYEKHKVYACEVTHQGLSSPVTKSFNRGECHHHHHH heavy: QVQLVQSGAEVKKPGSSVKVSCKASGYTFTDYNMHWVRQAPGQGLEWIGYIYPYNGGTGYNQKFKSKATITADESTNTAYMELSSLRSEDTAVYYCARGRPAMDYWGQGTLVTVSSASTKGPSVFPLAPSSKSTSGGTAALGCLVKDYFPEPVTVSWNSGALTSGVHTFPAVLQSSGLYSLSSVVTVPSSSLGTQTYICNVNHKPSNTKVDKKVEPKSCHHHHHH	3.4	5.79	1.79	8.64	4.5
CD33 BRIDGE variant B20 (Fab, V domains shown, Lintuzumab-based Fab bridging molecule) VH: QVQLVQSGAEVKKPGSSVKVSCKASGYTFTDYNMHWVRQAPGQGLEWIGYIYPYNGGTGYNQKFKSKATITADESTNTAYMELSSLRSEDTAVYYCARGRPAMDYWGQGTLVTVSS VL: DIQMTQSPSSLSASVGDRVTITCRASESVDNYGISFMNWFQQKPGKAPKLLIYAASNQGSGVPSRFSGSGSGTDFTLTISSLQPDDFATYYCQQSKEVPWTFGQGTKVEIKR	2.9	5.67	1.29	8.46	3.2

Next, values leading:

HisTag MFI Ratio of EGFR+/EGFR- (nfP2X7 CAR 1 [1])	MFI HisTag FITC (CD33 [2])	MFI HisTag FITC in EGFR+ Population (nfP2X7 CAR 1 [3])	MFIR HisTag FITC (CD33 [4])	HisTag MFI Ratio (background 0.4) (nfP2X7 CAR 1 [5])	Binder
2.9	5.35	1.29	7.99	3.2	CD33 BRIDGE variant B19 (Fab, V domains shown, Lintuzumab-based Fab bridging molecule) VH: QVQLVQSGAEVKKPGSSVKVSCKASGYTFTDYNMHWVRQAPGQGLEWIGYIYPYNGGTGYNQKFKSKATITADESTNTAYMELSSLRSEDTAVYYCARGRPAMDYWGQGTLVTVSS VL: DIQMTQSPSSLSASVGDRVTITCRASESVDNYGISFMNWFQQKPGKAPKLLIYAASNQGSGVPSRFSGSGSGTDFTLTISSLQPDDFATYYCQQSKEVPWTFGQGTKVEIKR
3.4	7.29	1.82	10.9	4.6	CD33 BRIDGE variant B25 (Fab, V domains shown, Lintuzumab-based Fab bridging molecule) VH: QVQLVQSGAEVKKPGSSVKVSCKASGYTFTDYNMHWVRQAPGQGLEWIGYIYPYNGGTGYNQKFKSKATITADESTNTAYMELSSLRSEDTAVYYCARGRPAMDYWGQGTLVTVSS VL: DIQMTQSPSSLSASVGDRVTITCRASESVDNYGISFMNWFQQKPGKAPKLLIYAASNQGSGVPSRFSGSGSGTDFTLTISSLQPDDFATYYCQQSKEVPWTFGQGTKVEIKR
